In patent US20200207847A1 (SINGAPORE HEALTH SERVICES PTE, published 2020):

T1: human IL-11Rα, FLAG-tagged, expressed at the surface of transiently transfected cells (human, UniProt Q14626 23-422)
T1 construct: whole, on cells; also called IL-11Rα expressing HEK cells; FLAG-tagged human IL-11Rα; not shown: tag
T1 sequence (looked up): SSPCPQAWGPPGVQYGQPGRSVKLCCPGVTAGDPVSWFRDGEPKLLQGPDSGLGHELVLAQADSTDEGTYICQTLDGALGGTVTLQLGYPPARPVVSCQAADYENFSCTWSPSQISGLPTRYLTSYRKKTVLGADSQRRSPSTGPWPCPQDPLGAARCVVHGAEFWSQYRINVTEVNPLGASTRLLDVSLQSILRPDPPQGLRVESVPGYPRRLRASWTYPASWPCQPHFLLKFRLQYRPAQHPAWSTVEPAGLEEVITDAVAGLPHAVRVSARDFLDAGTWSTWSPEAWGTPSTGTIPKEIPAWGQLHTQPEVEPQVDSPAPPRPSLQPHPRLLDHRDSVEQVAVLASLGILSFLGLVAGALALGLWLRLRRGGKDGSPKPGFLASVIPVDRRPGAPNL


What was measured:
[1] = molecular target: T1, human IL-11Rα, FLAG-tagged, expressed …; experiment: flow cytometry of subcloned hybridoma supernatant on cells transfected with FLAG-tagged human IL-11Rα (sheet header: 'pB1-IL11-hum.FL', 'flow cytometry (Attunes)'; text: iQue mix-and-measure, anti-mouse IgG secondary)
Procedure: The mouse hybridomas producing anti-human IL-11Rα antibodies were sub-cloned, and cell culture supernatant from the subcloned hybridomas was analysed by “mix-and-measure” iQue assay for (i) ability to bind to human IL-11Rα, and (ii) cross reactivity for antigen other than IL-11Rα.
(§1) Briefly, labelled control cells (not expressing IL-11Rα at the cell surface) and unlabelled target cells expressing human IL-11Rα at their surface (following transient transfection with a plasmid encoding a FLAG-tagged human IL-11Rα) were mixed together with the cell culture supernatant (containing mouse-anti-IL-11Rα antibodies) and secondary detection antibodies (fluorescently-labelled anti-mouse IgG antibody).
(§2) The cells were then analysed using the HTFC Screening System (iQue) for the two labels (i.e. the cell label and the label on the secondary antibody). Detection of the secondary antibody on the unlabelled, IL-11Rα expressing cells indicated ability of the mouse-anti-IL-11Rα antibodies to bind to IL-11Rα. Detection of the secondary antibody on the labelled, control cells indicated cross-reactivity of the mouse-anti-IL-11Rα antibodies for target other than IL-11Rα.

[2] = molecular target: T1, human IL-11Rα, FLAG-tagged, expressed …; experiment: same assay; percent relative to the positive control anti-FLAG antibody (100%)
Procedure: as §1, §2
As a positive control condition, labelled and unlabelled cells were incubated with a mouse anti-FLAG tag antibody as the primary antibody.

Row | Binder | GMFI [1] | % positive [2] [%]
1 | BSO-5E5 (antibody, V domains shown, Mouse monoclonal from hybridoma; also called RA5) VH: DVQLQESGPGLVKPSQSLSLTCSVTGYSITSDYYWNWIRQFPGNKLEWMGYISYDSSNNYNPSLKNRISITRDTSKNQFFLKLNSVTTEDTATYYCASVGYYYVSDWYFDVWGTGTTVTVSS VL: DIVMSQSPSSLPVSVGENVTMSCKSSQSLLYGSNQKNYLAWYQQKPGQSPKLLIYWASTRESGVPDRFTGSGSGTDFTLTISSVKAEDLAVYFCQQYYSYPRTFGGGTKLEIK | 8780 | 28
2 | BSO-7G9 (antibody, V domains shown, Mouse monoclonal from hybridoma) VH: QVQLQQPGAELVKPGASVRLSCKASGYTFTSYWMHWVKQRPGQGLEWIGMIHPNSGYTNYNEKFKIKATLTVDKSSSTAHMQLSSLTSEDSAVYHCARGGYDGSYGPWFAYWGQGTLVTVSA VL: DVVMTQTPLSLPVSLGDQASISCRSSQSLVHSNGNTYLHWYLQKPGQSPKLLIYKVSNRFSGVPDRFSGSGSGTDFTLKISRVEAEDLGVYFCSQSTHVPLTFGAGTKLELK | 18600 | 59
3 | BSO-9A7 (antibody, V domains shown, Mouse monoclonal from hybridoma; also called RA7) VH: QVQLQQPGAELVRPGSSVKLSCKASGYTFTNYWMHWLKQRPVQGLEWIGNIGPSDSKTHYNQKFKDKATLTVDKSSSTAYMQLNSLTSEDSAVYYCARGDYVLFTYWGQGTLVTVSA VL: DIVLTQSPATLSMTPGDSVSLSCRASQSISNNLHWYQQKSHESPRLLIKYASQSISGIPSRFSGSGSGTDFTLSFNSVETEDFGVYFCQQRYSWPLTFGAGTKLEMK | 34800 | 111
4 | BSO-10D11 (antibody, V domains shown, Mouse monoclonal from hybridoma) VH: QVQLQQSGTELVRPGTSVKMSCKAAGYTFTDYWIGWIKQRPGHGLEWIGDIFPGGDYTKCSERFKGKAKLTADTSSSTAYMQLSRLTSEDSAIYYCARRSTTIRFGAMDNWGQGTSVTVSS VL: DIQMTQSPSSLSASLGERVSLTCRASQEISAYLSWLQQKPDGTIKRLIYSTSTLDSGVPKRFSGSRSGSDYSLTISSLESEDFADYFCLQYASSPLTFGAGTKLELK | 13100 | 42
5 | BSO-13B10 (antibody, V domains shown, Mouse monoclonal from hybridoma; also called RA9) VH: QVQLKESGPGLVAPSQSLSITCTVSGFSLTSFSISWVRQPPGKGLEWLGGIWTGGGTNYNSALKPRLSISKDNSKSQVFLKMNSLQTDDTARYYCARNSNYPSGFAYWGQGTLVTVSA VL: DIVMTQSQKFMSTSVGDRVSVTCKASQNVGSNVAWYQQKAGQSPKALIYSASYRYSGVPDRFTGSGSGTDFTLTISNVQSEDLAEYFCQQYNSYPLTFGAGTKLELK | 10900 | 35
6 | BSO-2E5 (antibody, V domains shown, Mouse monoclonal from hybridoma; also called RA3) VH: QGQVQQSGAELVKPGASVKLSCKTSGFTFSTSYISWLKQKPRQSLEWIAWIYAGTGSTSYNQKFTGKAQLTVDTSSSTAYMQLSSLTSEDSAIYYCARHWAYWGQGTLVTVSA VL: DIQMTQSPSSLSASLGERVSLTCRASQDIGSSLNWLQQEPDGTIKRLIYATASLESGVPKRFSGSRSGSDYSLTISRLESEDFVDYYCQQYASSPPTFGAGTKLELK | 9540 | 30
7 | BSO-4G3 (antibody, V domains shown, Mouse monoclonal from hybridoma) VH: EVQLVESGGGLVKPGGSLKLSCAASGFTFSTYAMSWVRQTPEKRLEWVAAIKSNGGSTYYPDTVKDRFTISRDNAKNTLYLQMSSLRPEDTALYYCAHGLLFAHWGQGTLVTVSA VL: DIVLTQSPASLAVSLGQSVTISCRASESVEYSGTTLMQWYQQKPGQPPKLLIYGASNVESGVPARFSGSGSGTDFSLNIHPVEEDDIAMYFCQQSRKVPYTFGSGTKLEIK | 9300 | 30
